Measurements: US20230212589A1

Experiments:
[1] = molecular target: Recombinant S1 protein of SARS-CoV-2 (SARS-CoV-2) (UniProt P0DTC2)
[2] = molecular target: Recombinant S1 protein of MERS-CoV (MERS-CoV) (UniProt K9N5Q8)

Substance | sensitivity of the test strip [1] [nM] | sensitivity of the test strip [2] [nM]
ACE2-AVI tag-6×His tag fusion protein, biotinylated and labeled with color latex (L-SB-ACE2) (receptor; other documents disagree on this pair) | 10 | 
6×His tag-AVI tag-DPP4 fusion protein, biotinylated and labeled with color latex (L-SB-DPP4) (receptor; other documents disagree on this pair) |  | 10
